Consider five molecules from PMC7704496, “RNA and DNA Binding Epitopes of the Cold Shock Protein TmCsp from the Hyperthermophile Thermotoga maritima”.

As usually defined, the Kd is the constant that tells how readily two partners part at equilibrium.

Common to all, as to settings: protein: recombinant; tags: none stated; chain copies: 2; label: none (5'-fluorescein in EMSA); single strand
For orientation: In EMSA bound probe runs differently from free probe, usually more slowly.

The target of data set [1] is T1, TmCsp (cold shock protein) (Thermotoga maritima, UniProt O54310 1-66). Nature of the data set: Trp fluorescence quenching; 303 K; EMSA: 50 mM NaH2PO4 pH 6.5, 20 mM NaCl, 0.2 mM EDTA, room temperature 1 h, 20% gel in 1xTBE at 4 C; NMR: 50 mM sodium phosphate pH 6.5, 20 mM NaCl, 0.2 mM EDTA.
T1 sequence (O54310 whole entry): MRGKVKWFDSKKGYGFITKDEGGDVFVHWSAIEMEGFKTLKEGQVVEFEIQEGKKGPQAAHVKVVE
The target of data set [2] is T1, TmCsp (cold shock protein). Nature of the data set: Trp fluorescence quenching; 343 K; EMSA: 50 mM NaH2PO4 pH 6.5, 20 mM NaCl, 0.2 mM EDTA, room temperature 1 h, 20% gel in 1xTBE at 4 C; NMR: 50 mM sodium phosphate pH 6.5, 20 mM NaCl, 0.2 mM EDTA.
For data set [3], the target named is T1, TmCsp (cold shock protein). Nature of the data set: Trp fluorescence quenching; 323 K; EMSA: 50 mM NaH2PO4 pH 6.5, 20 mM NaCl, 0.2 mM EDTA, room temperature 1 h, 20% gel in 1xTBE at 4 C; NMR: 50 mM sodium phosphate pH 6.5, 20 mM NaCl, 0.2 mM EDTA.

Consider AAAAAAA (ssDNA) [(dA)7], for which the Kd in data set [1] came out at 5000 ± 200 nM.

Regarding GGGGGGG (ssDNA) [(dG)7], the Kd in data set [1] was 3400 ± 100 nM; in data set [2] it was 5600 ± 100 nM.

For TTTTTTT (ssDNA) [(dT)7], the values for the Kd in data set [3], in data set [1] and in data set [2] were 440 ± 20 nM, 4 ± 0.2 nM and 1600 ± 40 nM, respectively.

As to UUUUUUU (ssRNA) [(rU)7], the Kd in data set [3] came out at 1520 ± 10 nM; in data set [1], 10.8 ± 0.8 nM; in data set [2] it was 17400 ± 100 nM.

As to CCCCCCC (ssDNA) [(dC)7], the dissociation constant (Kd) in data set [1] was 2800 ± 100 nM; in data set [2], 11000 ± 100 nM.
